# Reference: paper PMC5061722
# What was measured:
# Test in all cases: SEC
# [1] = target: EpsE-XcpR CM-Hcp1 chimera fusion (UniProt P37093)
# [2] = target: full-length EpsE-Hcp1 fusion (pET21(d)epsE(1-503)-8aa-hcp1-his6) (UniProt P37093)
# [3] = target: truncated ΔN1-EpsE-Hcp1 fusion (pET21(d)epsE(100-503)-8aa-hcp1-his6) (UniProt P37093)
substance,measurement,setting,value
EpsE-XcpR CM-Hcp1 chimera fusion (from UniProt P37093),stoichiometry N,[1],6
full-length EpsE-Hcp1 fusion (pET21(d)epsE(1-503)-8aa-hcp1-his6) (from UniProt P37093 1-503),stoichiometry N,[2],6
truncated ΔN1-EpsE-Hcp1 fusion (pET21(d)epsE(100-503)-8aa-hcp1-his6) (from UniProt P37093 100-503),stoichiometry N,[3],6
